From US20250057776A1

Molecular target: human integrin β5 (human) (UniProt P18084)
Assay: cell-based or functional assay

UniProt P18084, sequence (P18084 24-799 limits assumed): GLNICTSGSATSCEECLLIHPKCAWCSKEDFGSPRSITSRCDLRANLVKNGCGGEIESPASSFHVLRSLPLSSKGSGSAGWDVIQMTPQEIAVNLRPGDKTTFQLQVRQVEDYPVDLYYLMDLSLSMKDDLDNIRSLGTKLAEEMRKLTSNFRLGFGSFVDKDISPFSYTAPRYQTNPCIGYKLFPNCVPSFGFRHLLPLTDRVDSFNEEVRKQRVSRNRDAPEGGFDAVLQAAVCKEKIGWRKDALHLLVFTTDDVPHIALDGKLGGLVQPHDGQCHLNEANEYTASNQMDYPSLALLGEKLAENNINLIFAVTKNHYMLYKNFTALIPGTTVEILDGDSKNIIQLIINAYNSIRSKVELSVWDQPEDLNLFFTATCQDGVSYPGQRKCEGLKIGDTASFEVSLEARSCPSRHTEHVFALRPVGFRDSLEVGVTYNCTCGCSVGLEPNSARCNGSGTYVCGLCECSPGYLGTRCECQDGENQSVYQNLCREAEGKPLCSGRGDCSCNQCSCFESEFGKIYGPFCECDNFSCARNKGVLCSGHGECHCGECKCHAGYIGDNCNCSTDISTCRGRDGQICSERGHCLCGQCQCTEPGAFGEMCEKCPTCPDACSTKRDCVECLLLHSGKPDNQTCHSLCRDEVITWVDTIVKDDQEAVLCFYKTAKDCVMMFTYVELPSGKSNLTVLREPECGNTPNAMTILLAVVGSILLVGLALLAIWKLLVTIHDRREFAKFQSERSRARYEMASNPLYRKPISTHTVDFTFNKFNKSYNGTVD

anti-integrin β5 antibodies (model number D24A5, rabbit monoclonal antibodies #3629, commercially available from Cell Signaling Technology) (antibody)
Brightness (integration, A.U.) of plate of HPF cells after exosome introduction; integrin β5-introduced exosome + anti-integrin β5 antibodies (6.1 × 10^6 without antibodies): 5.1e+06 A.U.
